One test has as its target T1, canine NGF (canine, UniProt Q29074 110-229 (pig entry), limits assumed).
T1 construct: also called cNGF; canine β-NGF
T1 chain: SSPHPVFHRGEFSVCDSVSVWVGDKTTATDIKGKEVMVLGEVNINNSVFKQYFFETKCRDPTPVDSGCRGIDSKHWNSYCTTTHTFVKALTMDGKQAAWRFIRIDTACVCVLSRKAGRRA
Nature of the test: SPR Biacore, NGF amine-coupled to chip. The method, then: (§1) Antibody binding affinities of the antibodies against canine NGF were determined by surface plasmon resonance (SPR) on a Biacore system (Biocore Life Sciences (GE Healthcare), Uppsala, Sweden). Immobilization of canine and rat NGF were obtained by amine coupling 5 μg/mL NGF using N-hydroxysuccinimide (NHS)/1-Ethyl-3-(3-dimethylaminopropyl) carbodiimide (EDC) chemistry. Chips were quenched with ethanolamine and the affinity with which all candidate mAbs bound to the immobilized NGF was evaluated. Various concentrations of canine and felinized anti-NGF antibodies were injected over the NGF surfaces while the association of the antibody to the antigen and the dissociation of the formed complex were monitored in real time. Kinetic analysis was performed to obtain the equilibrium dissociation constant (KD).
(In SPR one partner is held on a chip, and binding of the other changes the refractive index at the surface.)

The target of a further test is T2, rat NGF (rat, UniProt P25427 122-241).
T2 construct: Immobilised on the Biacore chip by amine coupling; also called rN
Nature of the test: SPR Biacore, NGF amine-coupled to chip. The method, then: as §1

T2 sequence (P25427 122-241 limits assumed): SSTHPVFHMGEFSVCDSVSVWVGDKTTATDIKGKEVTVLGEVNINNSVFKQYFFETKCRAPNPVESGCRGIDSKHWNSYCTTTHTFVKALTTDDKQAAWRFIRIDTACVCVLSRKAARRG

B1: fel48L2 chimera (antibody, V domains shown)
VH: EVQLVESGGDLVKPGGSLRLSCVASGFTFSTYGINWVRQAPGKGLQWVAYISSGGSSTYYADPVKGRFTISRDDAKNMLYLQMNSLRAEDTAIYYCAGSRYTYAYGGGYEFHFWGQGTLVTVSS
VL: QAVLNQPASVSGALGQKVTISCSGSTMDIDIFGVSWYQQLPGKAPKLLVDSDGDRPSGIPDRFSGSRSGNSGTLTITGLQAEDEADYHCQSGDSTLGALAIFGGGTHVTVLG
notes: Canine variable domains on feline constant regions
In the test with canine NGF, B1 yielded an equilibrium dissociation constant (Kd) of 6.25 pM, an off-rate (koff) of 2.64e-06 s⁻¹ and a kon of 471000 M⁻¹ s⁻¹. Further, in the test with rat NGF, the Kd was 0.285 pM, the off-rate constant (koff) came out at 1.1e-07 s⁻¹ and the on-rate (kon) was determined as 387000 M⁻¹ s⁻¹.

A word on the Kd: it is a measure of binding affinity in units of concentration. Read a low Kd as higher affinity. One may read the koff as a measure of how fast the partners let go of each other. A high value points to fast dissociation. As usually defined, the kon is the rate constant with which the complex forms. A higher kon goes with faster complex formation.

The values above are taken from US20250154271A1 (published 2025).
